Values quoted from earlier work as cited in PMC3589724 (Scientific Reports, 2013).

Experiments:
[1] = tested on: PC12B cells
[2] = tested on: CaM; conditions: in vitro, PC12B cells
[3] = tested on: CaM; conditions: position Phe42

Molecule	association of Nm with the membrane skeleton [1]	Ca^2+ sensitivity of interaction with CaM [2]	increase in Nm-CaM affinity on Phe-to-Trp substitution [3] [fold]
S41A Nm mutant: Nm point mutant S41A (literature) (protein, UniProt P06837 1-227, looked up, variant S41A) Neuromodulin: MLCCMRRTKQVEKNDEDQKIEQDGVKPEDKAHKAATKIQAAFRGHITRKKLKGEKKGDAPAAEAEAKEKDDAPVADGVEKKEGDGSATTDAAPATSPKAEEPSKAGDAPSEEKKGEGDAAPSEEKAGSAETESAAKATTDNSPSSKAEDGPAKEEPKQADVPAAVTDAAATTPAAEDAATKAAQPPTETAESSQAEEEKDAVDEAKPKESARQDEGKEDPEADQEHA	inhibiting the association of Nm with the membrane skeleton of PC12B cells	insensitive to Ca^2+ concentrations in vitro	–
Phe-to-Trp substitution: Nm with Phe-to-Trp substitution at Phe42 (literature) (protein, UniProt P06837 1-227, looked up, variant F42W) Neuromodulin: MLCCMRRTKQVEKNDEDQKIEQDGVKPEDKAHKAATKIQASWRGHITRKKLKGEKKGDAPAAEAEAKEKDDAPVADGVEKKEGDGSATTDAAPATSPKAEEPSKAGDAPSEEKKGEGDAAPSEEKAGSAETESAAKATTDNSPSSKAEDGPAKEEPKQADVPAAVTDAAATTPAAEDAATKAAQPPTETAESSQAEEEKDAVDEAKPKESARQDEGKEDPEADQEHA	–	–	10
